No end group written: not given here.
biological target: amylin receptor in membranes prepared from the nucleus accumbens portion of the brain (rat) (rat); experiment: displacement of 125I-rat amylin from rat nucleus accumbens membranes

IC50 [nM] | Binder
104 | KCNTATCATQRLANFLVRSSK(mPEG40KD)NLGPVLPPTNVGSNTY-NH2 (ends and bridges not checked) [Cmpd 21, [K^21(mPEG40KD)]-Cmpd 3]
0.42 | CNTATCATQRLANFLVRSSNNLGPVLPPTNVGSNTY-NH2 (ends and bridges not checked) [Cmpd 2 ([desLys^1]-Cmpd 1)]
54 | CNTATCATQRLANFLVRSSNNLGPK(mPEG40KD)LPPTNVGSNTY-NH2 (ends and bridges not checked) [Cmpd 24, [K^26(mPEG40KD)]-Cmpd 6]
78 | mPEG40KD-CNTATCATQRLANFLVRSSNNLGPVLPPTNVGSNTY-NH2 (ends and bridges not checked) [Cmpd 20, mPEG40KD-Cmpd 2]
66 | KCNTATCATQRLANFLVRSSNNLGPK(mPEG40KD)LPPTNVGSNTY-NH2 (ends and bridges not checked) [Cmpd 23, [K^26(mPEG40KD)]-Cmpd 5]
75 | CNTATCATQRLANFLVRSSNNLGPVLPPTK(mPEG40KD)VGSNTY-NH2 (ends and bridges not checked) [Cmpd 26, [K^31(mPEG40KD)]-Cmpd 8]
112 | CNTATCATQRLANFLVRSSK(mPEG40KD)NLGPVLPPTNVGSNTY-NH2 (ends and bridges not checked) [Cmpd 22, [K^21(mPEG40KD)]-Cmpd 4]
86 | KCNTATCATQRLANFLVRSSNNLGPVLPPTK(mPEG40KD)VGSNTY-NH2 (ends and bridges not checked) [Cmpd 25, [K^31(mPEG40KD)]-Cmpd 7]
470 | KCNTATCATQRLANFLVRSSNNLGPK(Y‑shaped‑mPEG40KD)LPPTNVGSNTY-NH2 (ends and bridges not checked) [Cmpd 27, [K^26(Y-shaped-mPEG4OKD)]-Cmpd 5]
